Experimental data published in the domain aggregation screens of Martell et al. (2025).

Experiment: soluble fraction after stress (log2 fold change); higher = more stays soluble; pooled small domains, quantitative proteomics
Settings: stress: 75 degC
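Note: 20 min heating vs room temperature control held 20 min.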

Row | Sequence | soluble fraction (log2)
1 | HMSQNTHTIPSREDILGIFRSVNAPLDPQSLGKTLQVHADSMDVLVRRLKAMERDGQLKSDASGVFSLAD | 0.185
2 | HMSQNVQDVFLNHVRKSKNPVTVFLVNGVKLQGIITWFDNFSVLLRREGHTQLVYKHAISTVMPSGPIQLF | 0.113
3 | HMSQPALSYAFAKAQGVIVTALGDVAEVARRKGSQPQALAEVRRIAGRPLALREVDDAAFDRLLQDHYARS | -0.646
4 | HMSQQMSYSDFVKAVSARQIREAQIQGDKIYATDSTGNRLTIIRLDNDQRLVDDMINNDVNIIGLEE | 0.177
5 | HMSQSDLASAIGARVTIRLREASGGFRDIVGVLQRFGSGYGELINSKGEALTFSESEIAIWREVKA | -2.5
6 | HMSQTELIIVEEEMDGERLDAFLAEQVEQLSRSAVKNLINEGQVLVNGAKQKASYHVREGDEISIEIPEPQ | 0.836
7 | HMSQTPDLQQERANLGDNADARIEAVDLWANKFFPEEHADAILQIGQTAKGIEALEFIMSKV | -0.0375
8 | HMSQVLVRINQDLNIRSGPGAQYDIIAVYRSGAIASVIGTYNNWYKVNFELDSKSYTGWINGTFTSR | -2.48
9 | HMSQYELEDVEKQRLKFKNGDEKALWLLSDIYKDNSQSYEVRLAALRALSESRHPLIIFDIQSSVK | -0.527
10 | HMSRAAQRLFMSQPPLSRHIRQLEDRLGVTLFVRHTRGLTLTEDGQRVLEMVRPLLDLQDKTYAALSQLT | 0.0487
11 | HMSREMIKSELESISGLGKSGIEKLYTHFINIENIKSASLENIRNIPGISYKVADNIYKHFH | -0.238
12 | HMSRLGINTTIEDIKMVGKIIMPLLKQGQSVYQILASHPEIPYSEKTLYSYIEDNIFKDAGIDISVFDL | -1.32
13 | HMSRLLERARDLMAKPGAWLSAEGGAYALRLSPDRRSRISLTLTETEFRALIDQPGLRVRPGGGWSGRA | -3.05
14 | HMSRMGDSIKSLRSRNNMSQDALAEKLNVTRQAISNWENSKTQPDADTLKNLGIIFNVTVDEIINNDF | 0.0824
15 | HMSRQREWIYDYIQSHPDRHMSVEEIYEGLKAENREVSVATVYRNLKILQDENRIASLMLESGKQVFDK | -0.384
16 | HMSRREEALIALAQRVARQVARTKQPVTLEPMPANERRVIHVALRDNPDVETRSSGEGDQRRVTVYPRQ | -0.228
17 | HMSRRIEIELTSSRPDGSWTWRAAGAREPKGVLDGTLLSQGSKPGDVVKAEAEFDIDGITIVSITQ | -0.405
18 | HMSRSKLNRLDKIKKMLIAQTGISIKEFSASLNVSEITIRRDLNLLEEQGFIRLVNGVAIYRM | -1.75
19 | HMSRSLEIDVLVKALLEQDRRKFMLVTDGTADVTVRYNNALPSLFREGQGVVAEGLMDNGKFIATNVLAK | -0.811
20 | HMSRSLLAALEKLRESHTGSLPASVLSSAQRRSLESFAQTTKSVQMRPSGRGVVFAIINPEVVDKHWRELS | -0.959
21 | HMSRSSQMVNFIRLLSQEKKVSVNSIFSSSVQLSDGIIVKINDFYYRVNLSLDQKTYSLVEVS | -0.483
22 | HMSRVKQERLNRFVEAFEAYFRSVHPGEIDVEYLKSDEFGDIFESILHRVMHTASEEKMHRFKKILLNEM | -2.14
23 | HMSSADIPFSRFIDDVEAQRVEKVTIDGVNVTGRYRSDGAAFKTIIPSQYDGLVPILRQNKVDITVKDA | 0.24
24 | HMSSAMDMISRDVRNADSISISTTTYSKKIDLYNFDRNGDIEELHSYSAKNDLGILYNDEPI | -0.35
25 | HMSSANIKLDPLERQATQQIINNIKRKYPNATIENLQEVANDAIATMRQPEFSNYTVDKFVSYFLSM | -0.519
26 | HMSSARKVTVRGVRELPGIFMEKAEILDDGVRFFYRGEMEKLIGALQGLPIRDLTITEPDLEEVFLHFY | -1.48
27 | HMSSASETQYELALQAMRDGDNDAALRSLSTALASGFSDWQRIDEEPLLAALANDVRFQVLRSRWK | 0.0593
28 | HMSSDLVDYLVKYVAIVDNQEIEIADSKIGTAELGTTVSEVAKTVGNYYPKATVLSVKITGRNQEIVFEY | -2.91
29 | HMSSEPYISLPRGAAHDAYPLSTKAVAAQLGMSEVWLANLRSKGKGPRYVRVGTRVFYSPEDVAQWRRAT | -1.18
30 | HMSSESIIIKKLIEEFIHNENKYSPLSDEKLSYLLKNKGFSVARRTVAKYRDELGILSTRERKIKI | -1.76
